Measured values reported in patent US9266940 (Novo Nordisk, dated 2016).
Numbered stars: 1 amine (or outer) side, 2 acyl side, 3 side chain; on linkers, the order of the positions; unused ones are H or OH. Square brackets hold non-standard residues; d marks the D form. Side chains are listed from the residue outwards. Ends that are not written are not given here. * marks the point of attachment. Dodecanoyl(12-OPh(4-COOH)) = O=C(O)c1ccc(OCCCCCCCCCCCC(=O)*)cc1; Decanoyl(10-(4-HOOC-PhO)) = O=C(O)c1ccc(OCCCCCCCCCC(=O)*)cc1; γGlu = O=C(O)[C@H](CCC(=O)[*:2])N[*:1]; C14 diacid = O=C(O)CCCCCCCCCCCCC(=O)*; AEEA = NCCOCCOCC(=O)O; Aib = CC(C)(N)C(=O)O

Legend:
human GLP-1 receptor [1] = biological target: T1, human GLP-1 receptor (human, UniProt P43220 24-463); assay: cell-based or functional assay
human GLP-1 receptor [2] = biological target: T1, human GLP-1 receptor; assay: SPA displacement assay; IC50 at 2.0% HSA over IC50 at 0.001% HSA
Protocol: (§1) A shift in the binding affinity, $IC50$, is an indication that the peptide in question binds to albumin, and thereby a prediction of a potential protracted pharmacokinetic profile of the peptide in question in animal models.
(§2) 50 ul (micro liter) HSA ("high albumin" experiment containing 2% HSA), or buffer ("low albumin" experiment containing 0.001% HSA), was added to Optiplate, and 25 ul of test compounds were added. 5-10 ug membrane protein/sample was added (50 ul) corresponding to 0.1-0.2 mg protein/ml (to be preferably optimised for each membrane preparation). SPA-particles (Wheatgerm agglutinin SPA beads, Perkin Elmer, #RPNQ0001) were added in an amount of 0.5 mg/well (50 ul). […] The plates were sealed with PlateSealer and incubated for 120 minutes at 30° C. while shaking. The plates were centrifuged (1500 rpm, 10 min) and counted in Topcounter.

human GLP-1 receptor [3] = biological target: T1, human GLP-1 receptor; assay: SPA, displacement of 125I-GLP-1(7-36)NH2 from hGLP-1R BHK membranes, high HSA (2.0%)
Protocol: as §1, §2

human GLP-1 receptor [4] = biological target: T1, human GLP-1 receptor; assay: SPA, displacement of 125I-GLP-1(7-36)NH2 from hGLP-1R BHK membranes, low HSA (0.001%)
Protocol: as §1, §2

Row | Binder | EC50/pM (in vitro potency, cAMP formation, AlphaScreen) (human GLP-1 receptor [1]) [pM] | Ratio [(IC50/nM) high HSA]/[(IC50/nM) low HSA] (human GLP-1 receptor [2]) | IC50 (human GLP-1 receptor [3]) [nM] | IC50 (human GLP-1 receptor [4]) [nM]
1 | HAEGTFTSDVSSYLEEQAARK([AEEA-AEEA-γGlu-Decanoyl(10-(4-HOOC-PhO))])FIAWLVRGK([AEEA-AEEA-γGlu-Decanoyl(10-(4-HOOC-PhO))]) (ends and bridges not checked) | 62 | 101 | 29 | 0.29
2 | H[Aib]EGTFTSDVSSYLEK([AEEA-AEEA-γGlu-C14 diacid])QAVRK([AEEA-AEEA-γGlu-C14 diacid])FIAWLVR | 159 | 57 | 80 | 1.41
3 | H[Aib]EGTFTSDVSSYLEK([AEEA-AEEA-γGlu-C14 diacid])QAVRK([AEEA-AEEA-γGlu-C14 diacid])FIAWLVRG | 242 | 157 | 60 | 0.38
4 | HAEGTFTSDVSSYLEEQAARK([AEEA-AEEA-γGlu-Decanoyl(10-(4-HOOC-PhO))])FIEWLVRGK([AEEA-AEEA-γGlu-Decanoyl(10-(4-HOOC-PhO))])GEG | 43 | 821 | 320 | 0.39
5 | H[Aib]EGTFTSDVSSYLEEQAARK([AEEA-AEEA-γGlu-Decanoyl(10-(4-HOOC-PhO))])FIEWLVRGK([AEEA-AEEA-γGlu-Decanoyl(10-(4-HOOC-PhO))])GEG (also called 31) | 37 | 629 | 220 | 0.35
6 | HAEGTFTSDVSSYLEEQK([AEEA-AEEA-γGlu-Decanoyl(10-(4-HOOC-PhO))])ARK([AEEA-AEEA-γGlu-Decanoyl(10-(4-HOOC-PhO))])FIAHLVG (also called 25) | 380 | 3.5 | 39 | 10.9
7 | H[Aib]EGTFTSDVSSYK([AEEA-AEEA-γGlu-Decanoyl(10-(4-HOOC-PhO))])EEQAARK([AEEA-AEEA-γGlu-Decanoyl(10-(4-HOOC-PhO))])FIEWLVG | 468 | 79 | 446 | 5.68
8 | HAEGTFTSDVSSYLEEQAARK([AEEA-AEEA-γGlu-Dodecanoyl(12-OPh(4-COOH))])FIEWLVRGK([AEEA-AEEA-γGlu-Dodecanoyl(12-OPh(4-COOH))])GEG (also called 32) | 76 | 2050 | 369 | 0.18
